We go through one molecule from publication PMC11240982, “Recapitulation of HIV-1 Neutralization Breadth in Plasma by the Combination of Two Broadly Neutralizing Antibodies from Different Lineages in the Same SHIV-Infected Rhesus Macaque” (International Journal of Molecular Sciences, 2024).

The target in this test is T1, BG505 Env UFO (uncleaved prefusion-optimized) trimer with Avi tag (HIV-1 clade A, BG505, stabilised).
T1 construct: also called BG505 UFO trimer; BG505 UFO
The experiment in a line: BLI; antibody (20 µg/mL) immobilised on Anti-hIgG-Fc Capture (AHC) biosensors; serially diluted BG505 UFO trimer or V3 peptide as analyte; OCTET Red96. The conditions noted are these: both partners purified. For orientation: In BLI a coated tip is dipped into the sample, and binding shifts an interference pattern.

B1: JT18 (antibody, V domains shown)
VH: EVQLVQSGAEVKRPGESLRISCKTSGYDFTDYWINWVRQMPGKGLEWVGMVYPSDSETAYSPSFRGRVTISADTSISTSYLQWTSLEASDTATYYCARPVSGTFALDVWGRGVLVAVSS
VL: QSVLTQPPSMSGAPGQRVTMSCTGGNSNIGANLYVQWYQQVPGTAPRLLIYEDNQRPSGVSDRFSGSRSGSSASLTITGLQSEDEADYYCQSYDNSLSTVLFGGGTRLTVL
notes: IGHV5-20*02, IGHJ5-2*02, IGHD1-44*02, CDR3 12 aa; constant region added, not specified; IGLV1S1*01, IGLJ3*01, CDR3 11 aa; Recombinant IgG; constant regions not specified (captured on anti-human IgG Fc biosensors, detected with anti-monkey IgG); source: HEK293T, co-transfected linear expression fragments, in supernatant (screen); Expi293F, co-transfected plasmids, purified (protein A agarose)
Broadly, the Kd is the equilibrium constant for the complex coming apart. Low values mean a tighter complex, high ones a looser complex. B1 returned a Kd of 4.03 nM.
